The values that follow come from patent US20210115100A1.

What all share (experiment): cell-based or functional assay
Assay [1] addresses wild type human mature BMP7 (SEQ ID NO: 2) (human) (UniProt P18075).
Assay [2] concerns the target human pro-BMP7 protein variant F9 (human) (UniProt P18075).
The target in assay [3] is human mature BMP7 protein variant F9 (SEQ ID NO: 8) (human) (UniProt P18075).
Assay [4] deals with wild type human pro-BMP7 (human) (UniProt P18075).
Sequence of wild type human pro-BMP7 (human) (P18075 293-431, chain 1 of 2): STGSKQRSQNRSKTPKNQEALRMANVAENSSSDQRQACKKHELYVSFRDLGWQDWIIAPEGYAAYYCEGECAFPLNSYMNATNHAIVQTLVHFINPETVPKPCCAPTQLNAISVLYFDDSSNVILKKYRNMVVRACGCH
Sequence of wild type human pro-BMP7 (human) (P18075 other isoform, or with tags, fused parts or gaps, chain 2 of 2): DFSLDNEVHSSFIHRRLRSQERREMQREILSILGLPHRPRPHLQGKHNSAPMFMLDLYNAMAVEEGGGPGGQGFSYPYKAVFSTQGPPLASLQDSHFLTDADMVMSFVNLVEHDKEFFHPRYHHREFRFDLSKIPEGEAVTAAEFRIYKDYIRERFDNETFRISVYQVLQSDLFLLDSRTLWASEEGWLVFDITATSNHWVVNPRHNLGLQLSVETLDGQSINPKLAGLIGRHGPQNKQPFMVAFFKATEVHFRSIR

Sequence of human mature BMP7 protein variant F9 (SEQ ID NO: 8) (human) (P18075 other isoform, or with tags, fused parts or gaps mutant): as the sequence (P18075 293-431, chain 1 of 2) above, with Y65G, I86L, F93V, N110G, Y128W counted along it
Sequence of human pro-BMP7 protein variant F9 (human) (P18075 other isoform, or with tags, fused parts or gaps mutant, chain 1 of 2): as the sequence (P18075 293-431, chain 1 of 2) above, with Y65G, I86L, F93V, N110G, Y128W counted along it
Sequence of human pro-BMP7 protein variant F9 (human) (P18075 other isoform, or with tags, fused parts or gaps mutant, chain 2 of 2): as the sequence (P18075 other isoform, or with tags, fused parts or gaps, chain 2 of 2) above
Sequence of wild type human mature BMP7 (SEQ ID NO: 2) (human) (P18075 293-431): as the sequence (P18075 293-431, chain 1 of 2) above

B1: Coco (protein, UniProt Q8N907 23-189, looked up, species assumed)
DAN domain family member 5: RPEPQSPRPQSWAAANQTWALGPGALPPLVPASALGSWKAFLGLQKARQLGMGRLQRGQDEVAAVTLPLNPQEVIQGMCKAVPFVQVFSRPGCSAIRLRNHLCFGHCSSLYIPGSDPTPLVLCNSCMPARKRWAPVVLWCLTGSSASRRRVKISTMLIEGCHCSPKA
Take B1: in assay [1], the % inhibition, 0.1X molar excess of inhibitor (hepcidin promoter luciferase, Hep3B2 HepPro luc cells) is -23.6%; the % inhibition, 1X molar excess of inhibitor (hepcidin promoter luciferase, Hep3B2 HepPro luc cells) is -25.9%; the % inhibition, 10X molar excess of inhibitor (hepcidin promoter luciferase, Hep3B2 HepPro luc cells) is 37.6%; the % inhibition, 100X molar excess of inhibitor (hepcidin promoter luciferase, Hep3B2 HepPro luc cells) stood at 77.4%. In assay [2], the % inhibition, 0.1X molar excess of inhibitor (hepcidin promoter luciferase, Hep3B2 HepPro luc cells) was -35.4%; the % inhibition, 1X molar excess of inhibitor (hepcidin promoter luciferase, Hep3B2 HepPro luc cells) was -27.5%; the % inhibition, 10X molar excess of inhibitor (hepcidin promoter luciferase, Hep3B2 HepPro luc cells) turned out to be 7%. Also, in assay [3], the % inhibition, 0.01X molar excess of inhibitor (hepcidin promoter luciferase, Hep3B2 HepPro luc cells) turned out to be 2.3%; the % inhibition, 0.1X molar excess of inhibitor (hepcidin promoter luciferase, Hep3B2 HepPro luc cells) is 7%; the % inhibition, 1X molar excess of inhibitor (hepcidin promoter luciferase, Hep3B2 HepPro luc cells) amounted to 7.3%; the % inhibition, 10X molar excess of inhibitor (hepcidin promoter luciferase, Hep3B2 HepPro luc cells) was determined as 28.5%. In addition, in assay [4], the % inhibition, 0.1X molar excess of inhibitor (hepcidin promoter luciferase, Hep3B2 HepPro luc cells) is -10.2%; the % inhibition, 1X molar excess of inhibitor (hepcidin promoter luciferase, Hep3B2 HepPro luc cells) turned out to be 4%; the % inhibition, 10X molar excess of inhibitor (hepcidin promoter luciferase, Hep3B2 HepPro luc cells) turned out to be 17.4%; the % inhibition, 100X molar excess of inhibitor (hepcidin promoter luciferase, Hep3B2 HepPro luc cells) came to 81.6%.

B2: Noggin (protein, UniProt Q13253 28-232, looked up, species assumed)
Noggin: QHYLHIRPAPSDNLPLVDLIEHPDPIFDPKEKDLNETLLRSLLGGHYDPGFMATSPPEDRPGGGGGAAGGAEDLAELDQLLRQRPSGAMPSEIKGLEFSEGLAQGKKQRLSKKLRRKLQMWLWSQTFCPVLYAWNDLGSRFWPRYVKVGSCFSKRSCSVPEGMVCKPSKSVHLTVLRWRCQRRGGQRCGWIPIQYPIISECKCSC
B2: in assay [1], the % inhibition, 0.1X molar excess of inhibitor (hepcidin promoter luciferase, Hep3B2 HepPro luc cells) is -12.2%; the % inhibition, 1X molar excess of inhibitor (hepcidin promoter luciferase, Hep3B2 HepPro luc cells) stood at 36.7%; the % inhibition, 10X molar excess of inhibitor (hepcidin promoter luciferase, Hep3B2 HepPro luc cells) was determined as 72.8%; the % inhibition, 100X molar excess of inhibitor (hepcidin promoter luciferase, Hep3B2 HepPro luc cells) is 73.7%. Also, in assay [2], the % inhibition, 0.1X molar excess of inhibitor (hepcidin promoter luciferase, Hep3B2 HepPro luc cells) was -15.2%; the % inhibition, 1X molar excess of inhibitor (hepcidin promoter luciferase, Hep3B2 HepPro luc cells) was -18.3%; the % inhibition, 10X molar excess of inhibitor (hepcidin promoter luciferase, Hep3B2 HepPro luc cells) is -23.6%; the % inhibition, 100X molar excess of inhibitor (hepcidin promoter luciferase, Hep3B2 HepPro luc cells) was -28.1%. In addition, in assay [3], the % inhibition, 0.01X molar excess of inhibitor (hepcidin promoter luciferase, Hep3B2 HepPro luc cells) is -2.6%; the % inhibition, 0.1X molar excess of inhibitor (hepcidin promoter luciferase, Hep3B2 HepPro luc cells) is -7.2%; the % inhibition, 1X molar excess of inhibitor (hepcidin promoter luciferase, Hep3B2 HepPro luc cells) was -6.9%; the % inhibition, 10X molar excess of inhibitor (hepcidin promoter luciferase, Hep3B2 HepPro luc cells) is -1.2%. Moreover, in assay [4], the % inhibition, 0.1X molar excess of inhibitor (hepcidin promoter luciferase, Hep3B2 HepPro luc cells) was -5.3%; the % inhibition, 1X molar excess of inhibitor (hepcidin promoter luciferase, Hep3B2 HepPro luc cells) came out at 24.8%; the % inhibition, 10X molar excess of inhibitor (hepcidin promoter luciferase, Hep3B2 HepPro luc cells) stood at 84.8%; the % inhibition, 100X molar excess of inhibitor (hepcidin promoter luciferase, Hep3B2 HepPro luc cells) was determined as 87.3%.
